B1: Hairpin Ribozyme (parent)
chain: GUCCUCUUUCACGUGCGCGUGAAAGAGAGAAGUGAACCAGAGAAACACACGUUGUGGUAUAUUACCUGGUA

These results are taken from the RNAGym collection of RNA variant scans (doi:10.7554/elife.80360).

The data set covers variants of B1. Put plainly: self-cleavage, relative activity (ratio to wild type); higher = more cleavage; co-transcriptional.
As to A22C G54A, the self-cleavage was 0.587.

A22C G54U: the self-cleavage came to 0.514.

Take G21C A45U: the self-cleavage came to 0.154.

Take G21C A45G: the self-cleavage is 0.192.

With G21C A45C, the self-cleavage was 0.276.

Take G21U U53A: the self-cleavage was 0.836.

In the case of A22G C38A, the self-cleavage came out at 0.147.

As for G21U A30G, the self-cleavage was determined as 0.149.

In the case of G21U A30U, the self-cleavage is 0.142.

As for G21U A49G, the self-cleavage was 0.408.

For the variant G21A U55A, the self-cleavage came out at 0.177.

In the case of A22G G54U, the self-cleavage came out at 0.423.

For the variant G21C U33A, the self-cleavage amounted to 0.133.

With G21U U63G, the self-cleavage was 0.248.

As to G21U U63C, the self-cleavage came out at 0.122.

On to G21C A64C, for which the self-cleavage was found to be 0.154.

With G21C A64U, the self-cleavage was 0.0998.

For the variant A22C G40C, the self-cleavage was 0.123.

For the variant G21A G42C, the self-cleavage amounted to 0.281.

On to G21A G42A, for which the self-cleavage is 0.218.

Regarding G21A G42U, the self-cleavage was determined as 0.249.

For G21A C46A, the self-cleavage was 0.149.

For G21C A31G, the self-cleavage is 0.275.

As to G21U G34A, the self-cleavage turned out to be 1.01.

As for G21C C48U, the self-cleavage came to 0.098.

In the case of G21C C48G, the self-cleavage turned out to be 0.184.

With U20G G57A, the self-cleavage came to 0.195.

As for U20G U33A, the self-cleavage turned out to be 0.158.

Regarding U20G U33G, the self-cleavage was found to be 0.11.

Consider A22C U55C, for which the self-cleavage was 0.247.

On to A22C U55G, for which the self-cleavage was determined as 0.173.

Take G21C A23C: the self-cleavage was determined as 0.422.

With G21U G68U, the self-cleavage is 0.32.

Take G21U G68A: the self-cleavage was found to be 0.237.

Take U20G G42C: the self-cleavage came out at 0.206.

As to U20G G42U, the self-cleavage is 0.245.

Turning to G21C U67A, the self-cleavage came to 0.212.

As to G21C U67C, the self-cleavage worked out at 0.18.

Consider G21C U67G, for which the self-cleavage stood at 0.246.

Consider G21U A64U, for which the self-cleavage was 0.113.

With G21U A64G, the self-cleavage was 0.573.

Turning to U20G A28U, the self-cleavage came to 0.643.

For the variant A22G C65G, the self-cleavage was determined as 0.249.

Turning to U20G U58C, the self-cleavage amounted to 0.826.

Consider G21A G29C, for which the self-cleavage was 0.168.

On to U20G U52G, for which the self-cleavage came out at 0.772.

Consider U20G C48A, for which the self-cleavage was 0.203.

Turning to U20G G25C, the self-cleavage came to 0.643.

As to A22G C37A, the self-cleavage worked out at 0.312.

Turning to A22G C37U, the self-cleavage came out at 0.646.

Turning to G21A C66U, the self-cleavage worked out at 0.447.

Regarding U20G A47U, the self-cleavage was 0.0722.

Consider G21U U70C, for which the self-cleavage was 0.687.

Take U20G G34C: the self-cleavage was 1.14.

Consider U20G G34A, for which the self-cleavage stood at 1.19.

Turning to U20C U63C, the self-cleavage came out at 0.184.

As for G21U C37A, the self-cleavage was 0.267.

Take G21C A26C: the self-cleavage amounted to 0.164.

With G21U A61C, the self-cleavage was 0.237.

As to U20C G56U, the self-cleavage is 0.215.

Regarding U20C G56C, the self-cleavage is 0.216.

For the variant U20C G54C, the self-cleavage was found to be 0.373.

Consider G21C A71G, for which the self-cleavage came out at 0.818.

On to G21C G68C, for which the self-cleavage amounted to 0.155.

For G21C G68A, the self-cleavage worked out at 0.321.

Take G21U U62A: the self-cleavage was determined as 0.151.

With A22G A35G, the self-cleavage came out at 0.905.

In the case of A22G A35U, the self-cleavage is 0.715.

Consider G21A A59U, for which the self-cleavage came to 0.142.

In the case of G21A A59C, the self-cleavage was 0.13.

In the case of G21C U62G, the self-cleavage amounted to 0.216.

As to U20G G40C, the self-cleavage stood at 0.188.

Turning to G21A G25U, the self-cleavage was 0.426.

G21A G32A: the self-cleavage worked out at 0.193.

Turning to G21A G32U, the self-cleavage came to 0.0748.

On to G21U U60C, for which the self-cleavage is 1.08.

A22C G42U: the self-cleavage came to 0.239.

With A22C G42A, the self-cleavage is 0.146.

For the variant G21C C66A, the self-cleavage stood at 0.27.

Take G21C C66U: the self-cleavage stood at 0.576.

G21C G34U: the self-cleavage amounted to 1.12.

On to G21C G34C, for which the self-cleavage turned out to be 0.992.

As for G21U A71G, the self-cleavage is 0.805.

U20G G68U: the self-cleavage came to 0.297.

As for G21U U55C, the self-cleavage came to 0.288.

G21U U55A: the self-cleavage stood at 0.227.

For G21A C50U, the self-cleavage amounted to 0.371.

Turning to A22G A49U, the self-cleavage turned out to be 0.126.

With A22G A36G, the self-cleavage worked out at 0.757.

For the variant A22C C48U, the self-cleavage worked out at 0.235.

On to A22C C48G, for which the self-cleavage came to 0.138.

As for A22C C48A, the self-cleavage came to 0.291.

As for U20G A30G, the self-cleavage came out at 0.148.

On to U20G A30U, for which the self-cleavage turned out to be 0.137.

As for A22G A30G, the self-cleavage stood at 0.0887.

On to A22G A30C, for which the self-cleavage turned out to be 0.182.

As for A22G A30U, the self-cleavage is 0.0767.

As to U20G C37U, the self-cleavage worked out at 0.594.

For U20G C37G, the self-cleavage came to 0.395.

G21A G54U: the self-cleavage was found to be 0.372.

For G21A A47U, the self-cleavage is 0.162.

As to G21A G68A, the self-cleavage was determined as 0.151.

As to A22C U33C, the self-cleavage came out at 0.155.

On to A22C U33A, for which the self-cleavage is 0.0448.

Turning to G21C A35U, the self-cleavage turned out to be 0.751.

For the variant A22G G56A, the self-cleavage turned out to be 0.185.

For the variant A22G G56U, the self-cleavage is 0.0693.

Turning to G21C A28U, the self-cleavage was found to be 0.31.

On to A22G A44C, for which the self-cleavage was 0.136.

U20C G42C: the self-cleavage came out at 0.313.

On to A22C U58C, for which the self-cleavage is 0.94.

With A22C A26C, the self-cleavage turned out to be 0.528.

As for G21C A44U, the self-cleavage worked out at 0.0331.

For the variant A22G A31G, the self-cleavage was 0.744.

As for A22G A31C, the self-cleavage stood at 0.159.

Consider U20G A31U, for which the self-cleavage was determined as 0.0664.

For U20G A31C, the self-cleavage is 0.164.

Take G21A U53C: the self-cleavage amounted to 0.739.

For the variant G21A U53A, the self-cleavage was 0.824.

For the variant G21C G51A, the self-cleavage was found to be 0.914.

In the case of G21C C65A, the self-cleavage worked out at 0.777.

With G21C G32C, the self-cleavage was 0.175.

For the variant A22G C48U, the self-cleavage was found to be 0.149.

As to G21C A36C, the self-cleavage was determined as 0.534.

For the variant G21C A36U, the self-cleavage came out at 0.566.

Turning to U20G A64G, the self-cleavage was 0.511.

On to U20G G29A, for which the self-cleavage amounted to 0.0828.

As for U20G G29C, the self-cleavage was 0.18.

Take G21C A41U: the self-cleavage amounted to 1.16.

For G21C A41C, the self-cleavage was 0.957.

Consider G21A A35G, for which the self-cleavage is 0.729.

In the case of A22C G29C, the self-cleavage was 0.0774.

With G21C A39G, the self-cleavage stood at 0.225.

In the case of G21C A39U, the self-cleavage amounted to 0.46.

On to U20G A39C, for which the self-cleavage was 0.461.

Turning to U20C G69A, the self-cleavage was 0.435.

For U20C G69C, the self-cleavage came to 0.239.

For G21U C38A, the self-cleavage stood at 0.184.

As to A22C A49U, the self-cleavage was 0.204.

Turning to U20G A22C, the self-cleavage is 0.816.

For the variant G21U A59U, the self-cleavage is 0.147.

Consider G21U A59C, for which the self-cleavage turned out to be 0.148.

Regarding G21U A59G, the self-cleavage came out at 0.0937.

For G21U A39C, the self-cleavage came out at 0.448.

Turning to G21U A39G, the self-cleavage was found to be 0.293.

On to G21C C38A, for which the self-cleavage was 0.18.

Turning to A22C A43C, the self-cleavage was 0.061.

On to A22C A23C, for which the self-cleavage stood at 0.947.

A22C A23U: the self-cleavage was 0.932.

On to A22C A23G, for which the self-cleavage turned out to be 0.779.

For A22G G27A, the self-cleavage was 0.522.

On to A22C A30C, for which the self-cleavage came to 0.16.

On to U20C U55C, for which the self-cleavage came to 0.159.

In the case of U20C U55G, the self-cleavage came to 0.426.

For the variant G21C G56C, the self-cleavage was found to be 0.209.

As for G21C G56U, the self-cleavage was found to be 0.268.

In the case of G21U G27U, the self-cleavage was found to be 0.253.

For G21A C37A, the self-cleavage was 0.269.

G21A C37U: the self-cleavage amounted to 0.538.

Consider G21A C37G, for which the self-cleavage came out at 0.344.

For the variant U20G C50G, the self-cleavage was 0.225.

Turning to G21U A44C, the self-cleavage was determined as 0.117.

For the variant G21U A44G, the self-cleavage was determined as 0.0823.

For A22G G25A, the self-cleavage was 0.623.

On to A22G G25U, for which the self-cleavage came to 0.595.

U20G A45G: the self-cleavage came out at 0.128.

On to G21U U58G, for which the self-cleavage was determined as 0.585.
